Results published in US12203932B2, “Genetically encoded biosensors” (Howard Hughes Medical Institute, priority 2011, dated 2025).

B1: wild-type YbeJ: E. coli glutamate-binding protein; SEQ ID NO:107 (protein, listed as Escherichia coli)
chain: MNAKIIASLAFTSMFSLSTLLNPAYAEEQEKALNFGIISTESQQNLKPQWTPFLQDMEKKLGVKVNAFFAPDYAGIIQGMRFNKVDIAWYGNLSAMEAVDRANGQVFAQTVAADGSPGYWSVLIVNKDSPINNLNDLLAKRKDLTFGNGDPNSTSGFLVPGYYVFAKNNISASDFKRTVNAGHETNALAVANKQVDVATNNTENLDKLKTSAPEKLKELKVIWKSPLIPGDPIVWRKNLSETTKDKIYDFFMNYGKTPEEKAVLERLGWAPFRASSDLQLVPIRQLALFKEMQSVKDNKGLNEQDKLAKTTAIQAQLDDLDRLNNALSAMSSVSKAVQ
B2: PfMBP: Pyrococcus furiosus maltotriose binding protein; SEQ ID NO:106 (protein, listed as Pyrococcus furiosus)
chain: MRRATYAFALLAILVLGVVASGCIGGGTTTPTQTSPATQPTTTQTPTQTETQAVECGSGKVVIWHAMQPNELEVFQSLAEEYMALCPEVEIVFEQKPNLEDALKAAIPTGQGPDLFIWAHDWIGKFAEAGLLEPIDEYVTEDLLNEFAPMAQDAMQYKGHYYALPFAAETVAIIYNKEMVSEPPKTFDEMKAIMEKYYDPANEKYGIAWPINAYFISAIAQAFGGYYFDDKTEQPGLDKPETIEGFKFFFTEIWPYMAPTGDYNTQQSIFLEGRAPMMVNGPWSINDVKKAGINFGVVPLPPIIKDGKEYWPRPYGGVKLIYFAAGIKNKDAAWKFAKWLTTSEESIKTLALELGYIPVLTKVLDDPEIKNDPVIYGFGQAVQHAYLMPKSPKMSAVWGGVDGAINEILQDPQNADIEGILKKYQQEILNNMQG

Tests used:
[1] = Fluorescence response and titration of soluble EcYbeJ253-cpGFP sensors with glutamate; type: binding; conditions: soluble protein; read-out: Kd (affinity) for glutamate
Experimental: Several thousand variants were screened in semi-high-throughput fashion, measuring fluorescence intensity of clarified cell lysate in the absence and presence of 10 mM glutamate.

[2] = Thermal stability by circular dichroism (CD) of MBPs and MBP-cpGFP sensors; type: physicochemical; conditions: CD signal vs temperature
Experimental: Thermal stability of PfMBP171-cpGFP.L2FE was measured using circular-dichroism (CD) and compared to the original EcMBP and PfMBP binding proteins, along with cpGFP. Following the changes by means of CD allowed determination of whether different transitions happened in alpha, beta, or both kinds of structures.
Given that cpGFP is a beta barrel, strong transitions in the beta signal alone were associated with changes in this kind of structure. In the same way, transitions in both kinds of signals were associated with the binding protein structure. […] Also, the addition of maltose to EcMBP stabilized the protein by about 10° C.

Row | Molecule | Kd [1] [nM] | denaturation temperature / Tm of binding protein (component) [2] [°C]
1 | B1 | ~1000 | 
2 | B2 |  | ≥ 80
